To fix the notation:
B1: library; numbered along this chain (parent)
chain: MNIQIGELAKRTACPVVTIRFYEQEGLLPPPGRSRGNFRLYGEEHVERLQFIRHCRSLDMPLSDVRTLLSYRKRPDQDCGEVNMLLDEHIRQVESRIGALLELKHHLVELREACSGARPAQSCGILQGLSDCVCDTRGTTAHPSD

In data set [1] the parent is B1. The data set is described as follows: sfGFP reporter fluorescence (15 h) (µM FITC); higher = higher leak. The following applies: library round: Round 0; ligand: none. In a few lines:
(§1)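 PCR-made linear PbrR templates (Echo-normalized to 5 nM) were expressed in BL21 Star (DE3) extract (PANOx-SP) with pPbrR-sfGFP reporter plasmid and 30 μg/mL GamS. Reactions were 1 μL, Echo-assembled, with 1 µM lead chloride, 30 µM zinc acetate or no metal, incubated 15 hr at 30 °C. Endpoint sfGFP fluorescence (485/528 nm, Synergy Neo2) was converted to µM FITC via standard curves in 50 mM sodium borate pH 8.5. Up to three biological replicates.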

In data set [2] the parent is B1. In words: sfGFP reporter fluorescence (15 h) (µM FITC); higher = stronger transcriptional activation. The following applies: library round: Round 0. The essentials:
as §1

± gives the standard deviation of the averaged measurements.

Consider V16G, for which the results for the sfGFP reporter fluorescence in data set [1], in data set [2] (ligand: 1 µM Pb) and in data set [2] (ligand: 30 µM Zn) were 0.0594 ± 0.0026, 0.0812 ± 0.0018 and 0.493 ± 0.014, respectively.
Taken in the same sequence, the figures for V16M were 0.0647 ± 0.0029, 0.099 ± 0.0052 and 0.9379 ± 0.0042.
The like results for V16P were, in that order, 0.06102 ± 0.00026, 0.08796 ± 0.00052 and 1.53 ± 0.031.
Taken in the same sequence, the figures for K104V G128M were 0.179 ± 0.0031, 0.808 ± 0.088 and 3.325 ± 0.0054.
For the variant K104V G128I, the sfGFP reporter fluorescence was found to be 0.0826 ± 0.006 in data set [1], 0.287 ± 0.021 in data set [2] (ligand: 1 µM Pb) and 1.84 ± 0.44 in data set [2] (ligand: 30 µM Zn).
Taken in the same sequence, the figures for L62A were 0.06469 ± 0.00026, 0.0634 ± 0.0031 and 0.0839 ± 0.0062.
The like results for P61N K104V G128I were, in that order, 0.133 ± 0.0086, 0.341 ± 0.0067 and 1.53 ± 0.083.
The like results for E47A were, in that order, 0.0612, 0.0779 ± 0.0049 and 0.791 ± 0.039.
Regarding E7V, the sfGFP reporter fluorescence in data set [1] was 0.06285 ± 0.00026; in data set [2] (ligand: 1 µM Pb), 0.0865; in data set [2] (ligand: 30 µM Zn), 0.961 ± 0.14.
For E7T, the results for the sfGFP reporter fluorescence in data set [1], in data set [2] (ligand: 1 µM Pb) and in data set [2] (ligand: 30 µM Zn) were 0.0625 ± 0.0018, 0.0894 ± 0.001 and 0.904 ± 0.041, respectively.
Taken in the same sequence, the figures for E7M were 0.0616 ± 0.0021, 0.0854 ± 0.0021 and 0.859 ± 0.01.
Taken in the same sequence, the figures for R48A were 0.0546 ± 0.0015, 0.0541 ± 0.0023 and 0.3984 ± 0.0031.
Taken in the same sequence, the figures for C114R were 0.0594 ± 0.001, 0.06029 ± 0.00026 and 0.0564 ± 0.0015.
In the case of L85D, the values for the sfGFP reporter fluorescence in data set [1], in data set [2] (ligand: 1 µM Pb) and in data set [2] (ligand: 30 µM Zn) were 0.0577 ± 0.0013, 0.0563 ± 0.0013 and 0.0537 ± 0.0013, respectively.
Taken in the same sequence, the figures for L85Q were 0.0586 ± 0.001, 0.0581 ± 0.00078 and 0.0658 ± 0.0023.
In the case of L126W, the figures for the sfGFP reporter fluorescence in data set [1], in data set [2] (ligand: 1 µM Pb) and in data set [2] (ligand: 30 µM Zn) were 0.0586, 0.0594 ± 0.0026 and 0.0612, respectively.
The like results for L126E were, in that order, 0.0594 ± 0.0021, 0.05772 ± 0.00026 and 0.0557 ± 0.001.
The like results for L126Q were, in that order, 0.05901 ± 0.00052, 0.0577 ± 0.0018 and 0.05534 ± 0.00052.
Taken in the same sequence, the figures for L126T were 0.0596 ± 0.0018, 0.0579 ± 0.0036 and 0.057 ± 0.0029.
As for L126P, the sfGFP reporter fluorescence in data set [1] came to 0.05552 ± 0.00026; in data set [2] (ligand: 1 µM Pb) it was 0.0555 ± 0.0023; in data set [2] (ligand: 30 µM Zn), 0.05113 ± 0.00026.
The like results for L68F were, in that order, 0.07935 ± 0.00078, 0.166 ± 0.0029 and 1.42 ± 0.11.
The like results for L68P were, in that order, 0.0632 ± 0.0029, 0.0583 ± 0.0015 and 0.0652 ± 0.0026.
Take L58Y: the sfGFP reporter fluorescence in data set [1] is 0.0784 ± 0.0062; in data set [2] (ligand: 1 µM Pb), 0.229 ± 0.011; in data set [2] (ligand: 30 µM Zn), 0.606 ± 0.036.
For the variant L58V, the results for the sfGFP reporter fluorescence in data set [1], in data set [2] (ligand: 1 µM Pb) and in data set [2] (ligand: 30 µM Zn) were 0.0583 ± 0.001, 0.0568 ± 0.0021 and 0.061 ± 0.0018, respectively.
The like results for L58R were, in that order, 0.06139 ± 0.00026, 0.0651 ± 0.0029 and 0.0662 ± 0.00078.
P30H: the sfGFP reporter fluorescence in data set [1] amounted to 0.0618 ± 0.00078; in data set [2] (ligand: 1 µM Pb) it was 0.0808 ± 0.0023; in data set [2] (ligand: 30 µM Zn), 0.659 ± 0.038.
For P30I, the sfGFP reporter fluorescence in data set [1] was 0.0563 ± 0.0039; in data set [2] (ligand: 1 µM Pb) it was 0.0869 ± 0.001; in data set [2] (ligand: 30 µM Zn) it was 0.926 ± 0.2.
Taken in the same sequence, the figures for P30D were 0.0658 ± 0.0029, 0.08338 ± 0.00026 and 0.391 ± 0.088.
As for P30E, the sfGFP reporter fluorescence in data set [1] was found to be 0.0621 ± 0.0013; in data set [2] (ligand: 1 µM Pb) it was 0.08594 ± 0.00078; in data set [2] (ligand: 30 µM Zn) it was 0.808 ± 0.075.
As to P61N D64K K104V L107C, the sfGFP reporter fluorescence in data set [1] was 0.676 ± 0.011; in data set [2] (ligand: 1 µM Pb), 2.12 ± 0.066; in data set [2] (ligand: 30 µM Zn), 2.74 ± 0.35.
G6P: the sfGFP reporter fluorescence in data set [1] is 0.061 ± 0.0013; in data set [2] (ligand: 1 µM Pb), 0.0601 ± 0.0015; in data set [2] (ligand: 30 µM Zn), 0.06084 ± 0.00052.
The like results for G6S were, in that order, 0.0608 ± 0.0021, 0.06853 ± 0.00052 and 0.412 ± 0.027.
Taken in the same sequence, the figures for G6E were 0.0636 ± 0.0034, 0.0605 ± 0.0015 and 0.0625 ± 0.0034.
The like results for K104Y were, in that order, 0.059 ± 0.0083, 0.113 ± 0.028 and 1.09 ± 0.13.
Regarding K104S, the values for the sfGFP reporter fluorescence in data set [1], in data set [2] (ligand: 1 µM Pb) and in data set [2] (ligand: 30 µM Zn) were 0.0612 ± 0.0021, 0.092 ± 0.02 and 1 ± 0.052, respectively.
As to K104G, the sfGFP reporter fluorescence was 0.0526 ± 0.0075 in data set [1], 0.0524 ± 0.0057 in data set [2] (ligand: 1 µM Pb) and 0.22 ± 0.0034 in data set [2] (ligand: 30 µM Zn).
The like results for K104D were, in that order, 0.0592 ± 0.006, 0.138 ± 0.046 and 1.06 ± 0.18.
Taken in the same sequence, the figures for E81A were 0.0612 ± 0.001, 0.0792 ± 0.0047 and 0.655 ± 0.13.
The like results for I90N were, in that order, 0.05717 ± 0.00052, 0.0601 ± 0.0036 and 0.279 ± 0.012.
Turning to I90C, the sfGFP reporter fluorescence in data set [1] turned out to be 0.0592 ± 0.0018; in data set [2] (ligand: 1 µM Pb), 0.0656 ± 0.00052; in data set [2] (ligand: 30 µM Zn), 0.568 ± 0.012.
The like results for P61N L107C G128M were, in that order, 3.31 ± 0.13, 4.37 ± 0.48 and 5.17 ± 0.11.
Taken in the same sequence, the figures for F21V were 0.0625 ± 0.00078, 0.0608 and 0.0669 ± 0.00078.
The like results for F21M were, in that order, 0.0599 ± 0.0013, 0.0619 ± 0.0021 and 0.09 ± 0.0086.
Turning to M60L K104V L107C, the sfGFP reporter fluorescence was found to be 1.11 ± 0.099 in data set [1], 3.04 ± 0.88 in data set [2] (ligand: 1 µM Pb) and 2.76 ± 0.63 in data set [2] (ligand: 30 µM Zn).
